Patent US7407939B2, “Protein kinase inhibitors comprising ATP mimetics conjugated to peptides or peptidomimetics” (CureGenics Ltd., priority 2001, dated 2008)

System: PC-3 cells
Assay: ssDNA apoptosis ELISA (induction of apoptosis in prostate cancer cells)
Format: cell-based
Conditions: 50 μM, optical density of treated divided by untreated cells
Procedure: Cells were assayed for Apoptosis using the ssDNA Apoptosis ELISA kit (Chemicon International Inc.). Cells were seeded in 96-well plates (5000 cells/well) and treated with different concentrations of the inhibitors. At different time point, plates were centrifuges at 200 g for 5 min, medium was removed and the cells were fixed with 80% methanol in PBS for 30 min at room temperature. Plates were dried by floating in a waterbath at 37° C. for 20 minutes. 50 μl of Formamide was added to each well and incubate at room temperature for 10 min. Plates were heated to 75° C. in a circulating waterbath for 10 min, cooled in refrigerator for 5 min, and then formamide was removed. […] Plates were monitored for colour development by ABTS using microplate reader at 405 nm.
DNA in apoptotic cells is sensitive to denaturation by formamide in contrast to necrotic cells. […] The specific denaturation was detected with monoclonal antibody to single stranded DNA. Using ssDNA Apoptosis ELISA kit (Chemicon International, Inc.) chimeric compounds were analyzed for their potential to induce apoptosis in PC-3 cells compared to TRAIL (TNF-related apoptosis-inducing ligand), a known apoptotic agent (R&D Systems, Inc.). Results are presented in values of apoptotic index which is calculated by dividing the optical density of treated and untreated cells.

B1: TRAIL: TNF-related apoptosis-inducing ligand, a known apoptotic agent (R&D Systems, Inc.) (protein, UniProt P50591 1-281, looked up)
Tumor necrosis factor ligand …: MAMMEVQGGPSLGQTCVLIVIFTVLLQSLCVAVTYVYFTNELKQMQDKYSKSGIACFLKEDDSYWDPNDEESMNSPCWQVKWQLRQLVRKMILRTSEETISTVQEKQQNISPLVRERGPQRVAAHITGTRGRSNTLSSPNSKNEKALGRKINSWESSRSGHSFLSNLHLRNGELVIHEKGFYYIYSQTYFRFQEEIKENTKNDKQMVQYIYKYTSYPDPILLMKSARNSCWSKDAEYGLYSIYQGGIFELKENDRIFVSVTNEHLIDMDHEASFFGAFLVG
Apoptotic index (48 hours): 2.3
